In patent publication US20170058021A1 (SHANGHAI PULMONARY HOSPITAL, published 2017):

B1: human lung tissue nanobody Nb43 (VHH)
VHH: MQAQLAVQLQLVESGGGLVQSGGSLRLSCAASGFTFNDYRMSWVRQAPGKGLEWVSDINSGGSSTYYADSVKGRFTVSRDNAKNTLYLQMNSLKPEDTAIYYCVALLGRGCSGLVQGAFGPWGQGTQVTVSSAHHSEDPGPRGLAAAGAPVPYPDPLEPRAA
B2: human lung tissue nanobody Nb15 (VHH)
VHH: MQAQLAGQLQLVESGGGLVQPGGSLSVSCAVRGRDLDYYVIGWFRQAPGKEREGVSCINNSDDTTYYSDSVKGRFTISRDHAKNTVYLQMNNLKPEDTALYYCAADFDRLDFTVKAMCVMKFFYYWGQGTQVTVSSEPKTPKPQGPRGLAAAGAPVPYPDLEPRAA
B3: human lung tissue nanobody Nb17 (VHH)
VHH: MQAQLAVQLQLVESGGGLVQPGGSLRLACAASGFNLDDYADIGWFRQAPGKERERVLCITISDGTTYYEDSGKGRFSISTDIAKNTVFLQMDSLKAEDTAVYYCAGDPAPFCLYNTYVPRTWGQGTQVTVSSAHHSEDPGPRGLAAAGAPVPYPDPLEPRAA
notes: also called No. 17
B4: human lung tissue nanobody Nb11 (VHH)
VHH: MQAQLAGQLQLVESGGGLVQPGGSLRLSCTASKFHLDSYAVAWFRQTPGKEREAVSFINTSDDVTYFADSVKGRFTISRDNSKNTVYLQMNVLKPEDTSIYVCAAVRSPGPTGPSMQPMWVPDLYDYWGQGTQVTVSSAHHSEDPGPRGLAAAGAPVPYPDPLEPRAA

Biological target: T1, human pulmonary surfactant protein A (hSP-A) (human, UniProt Q8IWL2 21-248)
T1 construct: Native material from ground human lung tissue (supernatant of the lysate, called 'purified hSP-A'); It may hold both SP-A1 and SP-A2 gene products; also called human lung SP-A
T1 sequence (Q8IWL2 21-248 limits assumed): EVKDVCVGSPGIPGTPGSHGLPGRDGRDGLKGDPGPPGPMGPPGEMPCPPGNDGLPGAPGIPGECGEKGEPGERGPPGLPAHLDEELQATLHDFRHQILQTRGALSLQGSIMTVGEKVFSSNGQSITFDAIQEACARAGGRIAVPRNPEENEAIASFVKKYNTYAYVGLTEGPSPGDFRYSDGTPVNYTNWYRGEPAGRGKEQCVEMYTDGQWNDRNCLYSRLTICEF
Test: ELISA with purified nanobody

OD450 relative to negative control | Binder
2 times the negative control | B1
2 times the negative control | B2
2 times the negative control | B3
2 times the negative control | B4

Biological target: T1, human pulmonary surfactant protein A …
Test: indirect phage ELISA, plate coated with hSP-A, OD 450 nm

affinity value relative to negative control | Binder
3 times the negative control | B1
3 times the negative control | B2
3 times the negative control | B3
3 times the negative control | B4
